Data: US7129053 (DAKOCYTOMATION DENMARK A S, dated 2006)

Target: T1, H. pylori catalase (Helicobacter pylori, UniProt P77872 1-505)
T1 construct: mature; also called katalase; immunizing antigen
T1 sequence (looked up): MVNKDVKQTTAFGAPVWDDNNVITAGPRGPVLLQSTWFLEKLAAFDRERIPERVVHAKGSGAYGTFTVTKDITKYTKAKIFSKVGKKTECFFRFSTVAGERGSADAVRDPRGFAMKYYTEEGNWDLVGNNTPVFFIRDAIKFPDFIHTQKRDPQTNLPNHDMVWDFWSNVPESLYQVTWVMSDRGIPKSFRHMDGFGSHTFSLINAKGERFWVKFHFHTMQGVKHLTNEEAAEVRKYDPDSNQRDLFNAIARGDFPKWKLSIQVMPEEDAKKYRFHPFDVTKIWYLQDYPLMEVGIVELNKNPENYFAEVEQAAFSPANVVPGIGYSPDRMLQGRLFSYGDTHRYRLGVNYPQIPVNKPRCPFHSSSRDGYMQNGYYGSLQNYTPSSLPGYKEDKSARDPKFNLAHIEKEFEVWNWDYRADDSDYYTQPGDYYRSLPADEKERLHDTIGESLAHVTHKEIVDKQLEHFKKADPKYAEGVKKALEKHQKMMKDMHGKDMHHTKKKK
Assay: SPR (BIAcore), catalase amine-coupled on CM5 chip, antibody 20-670 nM in flow
Procedure: Catalase was Immobilized through amine coupling on the dextrane matrix of the BIAcore CM5 sensor chip. For the activation of the dextrane matrix 45 μl of a 1:1-mixture of 0.05 M N-hydroxysuccinimide (NHS) and 0.2 M 1-ethyl-3-3-dimethylaminopropyl)carbodiimide (EDC) solution was conducted over the sensor chip at a flow rate of 5 μl/min. Then, the catalase (35 μl; 50 μg/ml in 10 mM sodium acetate, pH 5.0) were bound to the dextrane matrix. The remaining NHS ester was deactivated with 1 M ethanolamine (35 μl). Catalase that was not covalently bound to the dextrane matrix was removed by regenerating the sensor chip with HCl (10 mM; 15 μl).
By adding the catalase-specific monoclonal antibodies, these were made react with immobilized catalase and the mass attachment to the detector was measured. Antibody solutions in different concentrations ranging from 20 to 670 nM were used. They were injected via the catalase immobilized on the sensor chip at a flow rate of 25 μl/min each.
The values for the rate constants of the adsorption ($kon$) and desorption ($koff$) of the antibody could be calculated (BIAevaluation software 3.0).

B1: monoclonal antibody HP25.6m/1B5 (antibody, IgG1, V domains shown)
VH: EVQLQQSGAELVKPGASVKLSCTSSGFNIKDTYVHWMKQRPEQGLEWIGKIDPANGKTKYDPIFQAKATMTADASSNTAYLQLSSLTSEDTAVYYCALPIYYASSWFAYWGQGTLVTVSA
VL: DIVMTQSHKFMSTSVGDRVSITCKASQDVGTSVAWYQQKPGHSPKLLIYWTSTRHTGVPDRFTGSGSGTDFILTISNVQSEDLADYFCQQYSSSPTFGGGAKVEIK
notes: also called HP25.6m1/1B5
Kd: 0.681 nM | koff: 3.86e-05 s⁻¹ | kon: 56700 M⁻¹ s⁻¹

B2: monoclonal antibody HP25.2m/2H10 (antibody, IgG2a, V domains shown)
VH: VQLLEQPGAELAKPGASVKMSCKASGYTFTNYWIHWVKQRPGQGLKWIGYINPATGSTSYNQDFQDRATLTADKSSTTAYMQLTSLTSEDSSVYYCAREGYDGFDSWGQGTTLTVSS
VL: ELVLTQSPAIMSASPGEKVTMTCSASSSVNYMYWYQQKSGTSPKRWIYDTSKLASGVPARFSGSGSGTSYSLTLSSMEAEDAATYYCQQWSSNPYTFGGGTKLEIK
notes: also called HP25.2m/2H10 (K10); HP25.2m/2Hallin (K10)
Kd: 0.271 nM | koff: 3.9e-05 s⁻¹ | kon: 144000 M⁻¹ s⁻¹
